Source: EP4703383A1

Legend:
Test in all cases: ELISA, coated antigen 1 ug/mL, antibody 10 ug/mL
[1] = biological target: extracellular segment of human PRLR protein with avi-(his)6 tag (hPRLR-ECD-avi-his) (human) (UniProt P16471)
[2] = biological target: extracellular segment of the PRLR protein of cynomolgus monkey with avi-(his)6 tag (cynoPRLR-ECD-avi-his) (cynomolgus monkey)
[3] = biological target: murine PRLR extracellular domain (mouse) (UniProt Q08501)
murine PRLR extracellular domain (mouse), sequence (Q08501 20-229): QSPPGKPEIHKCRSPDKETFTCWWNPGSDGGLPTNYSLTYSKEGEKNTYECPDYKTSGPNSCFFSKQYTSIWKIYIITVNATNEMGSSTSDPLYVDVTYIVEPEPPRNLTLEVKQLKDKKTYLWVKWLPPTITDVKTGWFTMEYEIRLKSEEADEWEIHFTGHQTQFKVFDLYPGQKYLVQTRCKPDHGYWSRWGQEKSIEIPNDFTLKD

extracellular segment of the PRLR protein of cynomolgus monkey with avi-(his)6 tag (cynoPRLR-ECD-avi-his) (cynomolgus monkey), sequence (chain, as listed by the source limits assumed): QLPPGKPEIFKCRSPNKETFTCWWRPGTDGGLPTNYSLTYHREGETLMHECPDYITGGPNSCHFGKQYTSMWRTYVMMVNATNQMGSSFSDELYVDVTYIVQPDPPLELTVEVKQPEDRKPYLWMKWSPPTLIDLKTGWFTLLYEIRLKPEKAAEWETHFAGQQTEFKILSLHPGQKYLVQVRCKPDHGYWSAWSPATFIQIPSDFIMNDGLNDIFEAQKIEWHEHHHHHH
extracellular segment of human PRLR protein with avi-(his)6 tag (hPRLR-ECD-avi-his) (human), sequence (P16471 other isoform, or with tags, fused parts or gaps): as the sequence (chain, as listed by the source limits assumed) above, with V76I, T110A, M125I, T158I, I207T counted along it

Binder	absorbance at 450nm [1]	absorbance at 450nm [2]	absorbance at 450nm [3]
H-PR-B06 (antibody, V domains shown) VH: DVKLVESGGGLVKPGGSLKLACAASGFTFSSYTMSWVRQTPEKRLEWVATISSGGSYTYYPDSVKGRFTISRDNAKNTLYLQLSSLKSEDTAMYYCTRDRYYSTTPDWYFDVWGAGTTVTVSS VL: DIVLTQSPATLSVTPGDSVSLSCRATQIIFNNLHWYQQKSHESPRLLITYTSQSISGIPSRFSGSGSGTDFTLTINSVETEDFGMYFCQQSNTWPRTFGGGTKLEIK	3.94	0.435	0.334
HP-PR02H02 (antibody, V domains shown) VH: EVMLVESGGGLVKPGGSLKLACAASGFTFSSYTMSWVRQTPEKRLEWVATISSGGSYTYYPDSVKGRFTISRDNAKNTLYLQLSSLKSEDTAMYYCTRDRYYSTTPDWYFDVWGAGTTLTVSS VL: DIVITQSPATLSVTPGDSVSLSCRATQIIFNNLHWYQQKSHESPRLLITYTSQSISGIPSRFSGSGSGTDFTLTINSVETEDFGMYFCQQSNTWPRTFGGGTKLEIK	3.12	–	0.223
P-PR-D01H (antibody, V domains shown) VH: QVQLQQPGSELVRPGASVKLSCKASGFTFTTYWVHWVKQRPGQGLEWIGNISPGGGSTNYDEKFKSKASLTVDTFSNTAYMQLGSLTSEDSAVYYCIRHSGNYFNAMDYWGQGTTLTVSS VL: DIVMTQAAPSVPVTPGESVSISCRSSKSLLHSNGNTYLYWFLQRPGQSPQLLIYRMSNLASGVPDRFSGSGSGTAFTLRISRVEAEDVGVYYCMQHLEYPLTFGAGTKLELK	–	2.37	0.118
P-PR-C08H (antibody, V domains shown) VH: QVQLQQPGSELVRPGASVKLSCKASGFTFTTYWVHWVKQRPGQGLEWIGNISPGSGSTNYDEKFKSKASLTVDTFSNTAYMQLSSLTSEDSAVYYCIRHSGNYFNAMDYWGQGTTVTVSS VL: DIVMTQAAPSVPVTPGESVSISCRSSKSLLHSNGNTYLYWFLQRPGQSPQLLIYRMSNLASGVPDRFSGSGSGTAFTLRISRVEAEDVGVYYCMQHLEYPLTFGAGTKLELK	–	2.25	0.094
P-PR-C02H (antibody, V domains shown) VH: QVQLQQPGSELVRPGASVRLSCKASGFTFTTYWVHWVKQRPGQGLEWIGNISPGSGSTNYDEKFKSKASLTVDTFSNTAYMQLSSLTSEDSAVYYCIRHSGNYFNAMDYWGQGTSVTVSS VL: DIVMTQATPSVPVAPGESVSISCRSSKSLLHTNGYTYLYWFLQRPGQSPQLLIYRMSNLASGVPDRFSGSGSGTAFTLRISRVEAEDVGVYYCMQHLEYPLTFGAGTKLELK	–	2.3	0.115
P-PR-G02W (antibody, V domains shown) VH: QVQLQQPGSELVRPGASVKLSCKASGFTFTTYWVHWVKQRPGQGLEWIGNISPGSGSTNYDEKFKSKASLTVDTFSNTAYMQLSSLTSEDSAVYYCIRHSGNYFNAMDYWGQGTTLTVSS VL: DIVMTQAAPSVPVTPGESVSISCRSSKSLLHSNGNTYLYWFLQRPGQSPQLLIYRMSNLASGVPDRFSGSGSGTAFTLRISRVEAEDVGVYYCMQHLEYPLTFGAGTKLELK	2.25	2.51	0.09
HP-PR02E11 (antibody, V domains shown) VH: QVQLQQSGPGLVAPSQSLSITCTVSGFSLTSYGVNWVRQPPGKGLEWLGIIGAGGSTNYNSALMSRLSISKDNSKSQVFLKMNSLQTDDTAMYYCARSLYYYGSSSFAYWGQGTLVTVSA VL: DIVMTQTPLSLPVSLGDQASISCRSSQSIVHSNGNTYLEWYLQKPGQSPKLLIYKVSNRFSGVPDRFSGSGSGTDFTLKISRVEAEDLGVYYCFQGSHVPWTFGGGTKLELK	3.91	3.65	3.44

Further lines, results first:

absorbance at 450nm [1]	absorbance at 450nm [2]	absorbance at 450nm [3]	Binder
–	2.16	0.102	P-PR-C07H (antibody, V domains shown) VH: EVQLQQSGAELVRPGTSVQISCKASGYTFTNNWLAWIKQRPGHGLEWIGDIYPGGVYTNYNEKFKGKATLTADTSSSTAYMQLSSLTSEDSAVYFCYYGDFWSAYWGQGTLVTVSA VL: DIVMTQAAPSVPVTPGESVSISCRSSKSLLHSNGNTYLYWFLQRPGQSPQLLIYRMSNLASGVPDRFSGSGSGTAFTLRISRVEAEDVGVYYCMQHLEYPLTFGAGTKLELK
–	2.51	2.52	P-PR-D06H (antibody, V domains shown) VH: QVQLQQPGSELVRPGASVKLSCKASGFTFTTFWVHWVKQRPGQGLEWIGNISPGSTSTNYNEKFKNKASLTVDTFSNTAYMQLSSLTSEDSAVYYCIRHSGNYFNAMDYWGQGTTLTVSS VL: DIVMTQAAPSVPVTPGESVTISCRSSKSLLHSNGKTYLYWFLQRPGQSPQLLIYWMSNLASGVPDRFSGSGSGTAFTLRISRVEAEDVGVYYCMQHLEYPFTFGVGTKLELK
–	2.51	0.141	P-PR-B09W (antibody, V domains shown) VH: QVQLQQPGSELVRPGASVKLSCKASGFTFTTFWVHWVKQRPGQGLEWIGNISPGGTSTNYDEKFKSKASLTVDTFSNTAYMQLSSLTSEDSAVYYCIRHSGNYFNAMDYWGQGTSVTVSS VL: DIVMTQAAPSVPVTPGESVSISCRSSKSLLHSNGNTYLYWFLQRPGQSPQLLIYRMSNLASGVPDRFSGSGSGTAFTLRISRVEAEDVGVYYCMQHLEYPLTFGAGTKLELK
2.16	2.25	0.09	P-PR-C04W (antibody, V domains shown) VH: QVQLQQPGSELVRPGASVKLSCKASGFTFTTYWVHWVKQRPGQGLEWIGNISPGSGSTNYDEKFKSKASLTVDTFSNTAYMQLSSLTSEDSAVYYCIRHSGNYFNAMDYWGQGTTVTVSS VL: DIVMTQAAPSVPVTPGESVSISCRSSKSLLHSNGNTYLYWFLQRPGQSPQLLIYRMSNLASGVPDRFSGSGSGTAFTLRISRVEAEDVGVYYCMQHLEYPLTFGAGTKLELK
4	3.75	0.382	H-PR-B03 (antibody, V domains shown) VH: QVQLKESGPGLVAPSQSLSITCTVSGFSLTGFGVNWFRQPPGRGLEWLGMIWGDGSTDYNSALKSRLSISKDNSKSQVFLKMNSLQTDDTARYYCARVLYYYGGNSFAYWGQGTLVTVSA VL: DVLMTQTPLSLPVSLGDQASISCRSSQSIVHSNGNTYLEWYLQKPGQSPKLLIYKVSSRFSGVPDRFSGSGSGTDFTLKISRVEAEDLGVYYCFQGSHVPYTFGGGTKLEIK
1.45	1.52	0.273	HP-PR01C02 (antibody, V domains shown) VH: DVHLVESGPGLVKPSQSLSLTCTVTGYSITSDYAWNWIRQFPGNKLEWMGYISYSGSTGYSPSLKSRVSITRDTSKNQFFLQLNSVTTEDTATYFCARNNWAFDFWGQGTTLTVSS VL: DIVLTQSPAIMSASPGEKVTMTCSASSSVNYMHWYQQKSGTSPKRWIYDTSKLASGVPARFSGSGSGTSYSLTISSMEAEDAATYYCQQWSSNPLTFGAGTKLELK
0.638	–	0.161	HP-PR01B01 (antibody, V domains shown) VH: EVHLVESGPDLVKPSQSLSLTCTVTGYSITSGYNWHWIRQFPGNKLEWMGYIHYSGSTKYDPSLKSRISFTRDTSRNQFFLQLNSVTTEDRATYYCARSEAGGYSWFAYWGQGTLVTVSA VL: DIVMTQSPAIMSASPGEKVTMACSASSSVNYMHWYQQKSGTSPKRWIYDTSKLASGVPARFSGSGSGTSYSLTISSMEAEDAATYYCQQWSSNPLTFGAGTKLELK
